From patent US20260204353A1

Molecular target: - (UniProt P08069)
Experiment: ELISA
Conditions: scFv

EC50: 24 nM
Substance: Teprotumumab scFv mutant into which the consensus sequences were introduced (H16G, L60D, and L85D)
